Consider 28 molecules from US20050261472A1, “Binding moieties for fibrin” (Dyax Corp., priority 1999, published 2005).

For one test, the target named is T1, DD(E) (Homo sapiens, UniProt P02671+P02675+P02679).
T1 construct: host or cells: purchased fibrinogen clotted with thrombin, digested with plasmin, then purified by ammonium sulfate cuts and Sephacryl S200
In words: dissociation constant against fibrin-derived polypeptide DD(E). As to conditions: read-out: Kd DD(E). The format is binding. How it is done: The soluble fibrin-derived polypeptide DD(E) was prepared following a modification of a published method (Moskoitz and Budzynksi, Biochemistry, 33: 12937-12944 (1994) and references therein). Fibrinogen containing a Factor XIII trace impurity (1 g, Grade L; purchased from American Diagnostica) was dissolved in TBS buffer and dialyzed overnight against TBS containing 5 mM citrate. The fibrinogen concentration was adjusted to 3.0 mg/ml and CaCl2 was added to a concentration of 10 mM. Clotting of the fibrinogen was initiated by the addition of thrombin to 0.5 U/ml and the clot was incubated for 3 hours at 37° C. The clot was cut up with a spatula to release water and to concentrate the clot. The clot pieces were washed twice with TBS.Ca buffer (TBS containing 2 mM CaCl2) and were centrifuged at 4,000×g to compact the clots between washes. The clot material was resuspended in 250 ml TBS containing 25 mM CaCl2 and 2 K.I.U. plasmin per mg fibrin. The clots were digested overnight at 20° C. Undigested clot was removed by pipette, and the supernatant was shaken with 10 ml of Lysine Sepharose (Pharmacia) for 30 minutes and filtered to remove the resin. Aprotinin was added to the filtrate to a concentration of 500 U/μL. Ammonium Sulfate was added to 30% saturation and the precipitated protein was removed by centrifugation. More ammonium sulfate was added to the supernatant to a final concentration of 50% saturation, and the precipitated protein was concentrated by centrifugation. The pellets, containing DD(E), were resuspended in a small volume of buffer (50 mM Tris, 150 mM NaCl, 2 mM CaCl2) (<10 ml) and chromatographed on a Sephacryl S200 (Pharmacia) size exclusion column (5×100 cm) in the same buffer. Fractions of protein eluted from the column were assayed by SDS-PAGE for DD(E). DD(E) contains subunits of 55 kD (Fragment E) and 190 kD (Fragment DD). […]
Dissociation constants were determined against DD(E) as described above.

For test [1], the target named is DD(E) soluble fibrin-derived polypeptide (UniProt P02671). In words: Kd against DD(E) target.

Like-named read-outs stand apart in the source and are kept apart here. Bridge positions count the residues as written; N and C are the ends. Square brackets hold non-standard residues; d marks the D form. Ends that are not written are not given here. Peptide text beside a SMILES is read from it. hSer = N[C@@H](CCO)C(=O)O A value given as a limit tells only on which side of the number the result lay.

T1 sequence (P02671 130-216): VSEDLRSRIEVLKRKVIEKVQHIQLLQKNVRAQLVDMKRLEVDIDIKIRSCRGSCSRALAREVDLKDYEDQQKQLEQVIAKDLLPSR
T1 sequence (P02675 164-491): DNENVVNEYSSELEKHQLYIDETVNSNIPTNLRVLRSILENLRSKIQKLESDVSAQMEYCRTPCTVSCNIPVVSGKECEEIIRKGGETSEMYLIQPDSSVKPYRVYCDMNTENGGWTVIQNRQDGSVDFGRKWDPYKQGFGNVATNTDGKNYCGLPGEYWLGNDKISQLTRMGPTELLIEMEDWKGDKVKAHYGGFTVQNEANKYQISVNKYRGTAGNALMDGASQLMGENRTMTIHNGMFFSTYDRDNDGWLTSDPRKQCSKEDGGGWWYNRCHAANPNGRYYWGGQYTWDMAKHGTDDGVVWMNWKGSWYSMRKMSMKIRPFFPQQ
T1 sequence (P02679 114-432): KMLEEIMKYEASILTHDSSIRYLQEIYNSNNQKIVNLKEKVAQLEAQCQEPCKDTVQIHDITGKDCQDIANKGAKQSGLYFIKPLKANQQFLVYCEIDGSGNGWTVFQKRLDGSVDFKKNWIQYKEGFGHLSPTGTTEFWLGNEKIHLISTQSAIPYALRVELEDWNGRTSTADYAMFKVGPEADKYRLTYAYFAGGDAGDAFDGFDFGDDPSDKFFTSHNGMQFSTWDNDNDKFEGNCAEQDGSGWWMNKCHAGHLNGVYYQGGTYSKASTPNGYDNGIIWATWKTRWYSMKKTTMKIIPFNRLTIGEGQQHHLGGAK
T1 sequence (P02671 36-97): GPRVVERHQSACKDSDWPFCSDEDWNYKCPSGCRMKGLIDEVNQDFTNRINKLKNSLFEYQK
T1 sequence (P02675 45-152): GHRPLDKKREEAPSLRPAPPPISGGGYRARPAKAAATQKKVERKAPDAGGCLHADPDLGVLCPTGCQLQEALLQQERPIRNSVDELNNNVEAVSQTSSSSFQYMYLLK
T1 sequence (P02679 27-88): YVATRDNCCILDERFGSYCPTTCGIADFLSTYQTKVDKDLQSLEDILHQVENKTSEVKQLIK

As for NHGCYNSYGVPYCDYS [compound 18], at DD(E) (sequences of phage isolates from TN10-9 and TN6-6 libraries (Table 5)), the Kd was found to be 2.7 µM.
On to `CC(C)C[C@H](NC(=O)[C@@H]1CSSC[C@H](NC(=O)[C@@H]2CCCN2C(=O)[C@@H](N)CC(C)C)C(=O)N[C@@H](CC(=O)O)C(=O)N[C@@H](Cc2ccc(O)cc2)C(=O)N[C@@H](Cc2ccc(O)cc2)C(=O)NCC(=O)N[C@@H](CCO)C(=O)N1)C(=O)N[C@@H](CC(=O)O)C(N)=O` [SEQ ID NO: 50, LPCDYYGHseCLD] (H-LPCDYYG[hSer]CLD-NH2; disulfide 3-9), for which, on DD(E), the Kd is > 500 µM.
Regarding `CC(C)C[C@H](N)C(=O)N1CCC[C@H]1C(=O)N[C@H]1CSSC[C@@H](C(=O)N[C@@H](C)C(=O)N[C@@H](CC(=O)O)C(N)=O)NC(=O)[C@H]([C@@H](C)O)NC(=O)CNC(=O)[C@H](Cc2ccc(O)cc2)NC(=O)[C@H](Cc2ccc(O)cc2)NC(=O)[C@H](CC(=O)O)NC1=O` [SEQ ID NO: 47, LPCDYYGTCAD] (H-LPCDYYGTCAD-NH2; disulfide 3-9), at DD(E), the Kd turned out to be 10.1 µM.

B1: alanine scan peptide … (peptide)
peptide: H-LPCDAYGTCLD-NH2
modifications: disulfide 3-9
SMILES: CC(C)C[C@H](NC(=O)[C@@H]1CSSC[C@H](NC(=O)[C@@H]2CCCN2C(=O)[C@@H](N)CC(C)C)C(=O)N[C@@H](CC(=O)O)C(=O)N[C@@H](C)C(=O)N[C@@H](Cc2ccc(O)cc2)C(=O)NCC(=O)N[C@@H]([C@@H](C)O)C(=O)N1)C(=O)N[C@@H](CC(=O)O)C(N)=O
Turning to B1, in test [1], the Kd turned out to be 4.5 µM.

B2: synthetic polypeptide … (peptide)
peptide: H-RPCNYYGTCLH-NH2
modifications: disulfide 3-9
SMILES: CC(C)C[C@H](NC(=O)[C@@H]1CSSC[C@H](NC(=O)[C@@H]2CCCN2C(=O)[C@@H](N)CCCNC(=N)N)C(=O)N[C@@H](CC(N)=O)C(=O)N[C@@H](Cc2ccc(O)cc2)C(=O)N[C@@H](Cc2ccc(O)cc2)C(=O)NCC(=O)N[C@@H]([C@@H](C)O)C(=O)N1)C(=O)N[C@@H](Cc1c[nH]cn1)C(N)=O
B2 registered a Kd in test [1] of 4 µM.

B3: synthetic polypeptide … (peptide)
peptide: H-RPCDYYGTCFD-NH2
modifications: disulfide 3-9
SMILES: C[C@@H](O)[C@@H]1NC(=O)CNC(=O)[C@H](Cc2ccc(O)cc2)NC(=O)[C@H](Cc2ccc(O)cc2)NC(=O)[C@H](CC(=O)O)NC(=O)[C@@H](NC(=O)[C@@H]2CCCN2C(=O)[C@@H](N)CCCNC(=N)N)CSSC[C@@H](C(=O)N[C@@H](Cc2ccccc2)C(=O)N[C@@H](CC(=O)O)C(N)=O)NC1=O
With B3, in test [1], the dissociation constant Kd worked out at 3.4 µM.
FHCPYDLCHI: the Kd in test [1] was found to be 2 µM.
In test [1], H-CDYYGTCL-NH2 (disulfide 1-7 (inferred)) [truncated peptide CDYYGTCL] displayed a Kd of 22 µM.

B4: Gd-DTPA-Gly[SEQ ID NO: 21] (peptide)
peptide: GWFHCPYDLCHIL
modifications: disulfide 5-10 (inferred); not fully specified (N-terminus); printed as Trp-Phe-His-Cys-Pro-Tyr-Asp-Leu-Cys-His-Ile-Leu; also: Gd(III) chelated by DTPA on N-terminal Gly
Take B4: the Kd in test [1] was 2.9 µM.
In test [1], FHCPYDLCHIL displayed a Kd of 0.41 µM.
On to H-CDYYGTC-NH2 (disulfide 1-7 (inferred)) [truncated peptide CDYYGTC], for which the Kd in test [1] was determined as 38 µM.
Molecule LPCDYXGTCLD (1-naphthyl residue (Nal) at position 6; C-terminal amide; N-terminus free) [substituted peptide LPCDYNalGTCLD] came in with a Kd in test [1] of 125 µM.
In the case of WECPYGLCWI, the Kd in test [1] amounted to 3.87 µM.
H-PCDYYGTCL-NH2 (disulfide 2-8 (inferred)) [truncated peptide …]: the Kd in test [1] was found to be 50 µM.

B5: alanine scan peptide … (peptide)
peptide: H-LPCAYYGTCLD-NH2
modifications: disulfide 3-9
SMILES: CC(C)C[C@H](NC(=O)[C@@H]1CSSC[C@H](NC(=O)[C@@H]2CCCN2C(=O)[C@@H](N)CC(C)C)C(=O)N[C@@H](C)C(=O)N[C@@H](Cc2ccc(O)cc2)C(=O)N[C@@H](Cc2ccc(O)cc2)C(=O)NCC(=O)N[C@@H]([C@@H](C)O)C(=O)N1)C(=O)N[C@@H](CC(=O)O)C(N)=O
B5 came in with a Kd in test [1] of 5.9 µM.
The molecule LPCDYYXTCLD (not fully specified; D-alanine at position 7) [D-alanine peptide LPCDYYdATCLD] registered a Kd in test [1] of 4.9 µM.
For ECPYGLCWIQ, the Kd in test [1] amounted to 2.23 µM.
In test [1], WECPYGLCWIQ showed a Kd of 0.94 µM.

B6: synthetic polypeptide … (peptide)
peptide: H-LPCSYYGTCLH-NH2
modifications: disulfide 3-9
SMILES: CC(C)C[C@H](NC(=O)[C@@H]1CSSC[C@H](NC(=O)[C@@H]2CCCN2C(=O)[C@@H](N)CC(C)C)C(=O)N[C@@H](CO)C(=O)N[C@@H](Cc2ccc(O)cc2)C(=O)N[C@@H](Cc2ccc(O)cc2)C(=O)NCC(=O)N[C@@H]([C@@H](C)O)C(=O)N1)C(=O)N[C@@H](Cc1c[nH]cn1)C(N)=O
Take B6: the Kd in test [1] is 9.8 µM.

B7: synthetic polypeptide … (peptide)
peptide: H-FACHYYGTCLH-NH2
modifications: disulfide 3-9
SMILES: CC(C)C[C@H](NC(=O)[C@@H]1CSSC[C@H](NC(=O)[C@H](C)NC(=O)[C@@H](N)Cc2ccccc2)C(=O)N[C@@H](Cc2c[nH]cn2)C(=O)N[C@@H](Cc2ccc(O)cc2)C(=O)N[C@@H](Cc2ccc(O)cc2)C(=O)NCC(=O)N[C@@H]([C@@H](C)O)C(=O)N1)C(=O)N[C@@H](Cc1c[nH]cn1)C(N)=O
The molecule B7 showed an equilibrium dissociation constant (Kd) in test [1] of 7.3 µM.
HCPYDLCHIL returned a Kd in test [1] of 3.8 µM.
Regarding LPCDYYATCLD (C-terminal amide; N-terminus free), the Kd in test [1] was determined as 12.3 µM.
For H-LPCDYYGVCLD-NH2 (disulfide 3-9 (inferred)), in test [1], the Kd came out at 28 µM.

B8: alanine scan peptide … (peptide)
peptide: H-LACDYYGTCLD-NH2
modifications: disulfide 3-9
SMILES: CC(C)C[C@H](NC(=O)[C@@H]1CSSC[C@H](NC(=O)[C@H](C)NC(=O)[C@@H](N)CC(C)C)C(=O)N[C@@H](CC(=O)O)C(=O)N[C@@H](Cc2ccc(O)cc2)C(=O)N[C@@H](Cc2ccc(O)cc2)C(=O)NCC(=O)N[C@@H]([C@@H](C)O)C(=O)N1)C(=O)N[C@@H](CC(=O)O)C(N)=O
In test [1], B8 came in with a Kd of 2.9 µM.

B9: alanine scan peptide … (peptide)
peptide: H-LPCDYYGTCAD-NH2
modifications: disulfide 3-9
SMILES: CC(C)C[C@H](N)C(=O)N1CCC[C@H]1C(=O)N[C@H]1CSSC[C@@H](C(=O)N[C@@H](C)C(=O)N[C@@H](CC(=O)O)C(N)=O)NC(=O)[C@H]([C@@H](C)O)NC(=O)CNC(=O)[C@H](Cc2ccc(O)cc2)NC(=O)[C@H](Cc2ccc(O)cc2)NC(=O)[C@H](CC(=O)O)NC1=O
Molecule B9 had a Kd in test [1] of 10.1 µM.
With H-LPCDYYGSCLD-NH2 (disulfide 3-9 (inferred)), in test [1], the dissociation constant (Kd) turned out to be 26 µM.
H-LPCDYYGTCLD-NH2 (disulfide 3-9 (inferred)): the dissociation constant (Kd) in test [1] came out at 2.6 µM.
In test [1], GFHCPYDLCHIL registered a Kd of 6.7 µM.
